Data on 38 variants can be found in the RNAGym collection of RNA variant scans (doi:10.7554/elife.80360).

B1: Hairpin Ribozyme (parent)
chain: GUCCUCUUUCACGUGCGCGUGAAAGAGAGAAGUGAACCAGAGAAACACACGUUGUGGUAUAUUACCUGGUA

The data set covers variants of B1. Put plainly: self-cleavage, relative activity (ratio to wild type); higher = more cleavage; co-transcriptional.
Consider GUCCUCUUUCACGUGCGUGUGAAAGAGAGAAGUGAACCAGAGGAACACACGUUGUGGUAUAUUACCUGGUA, for which the self-cleavage stood at 0.103. As for GUCCUCUUUCACGUGCGCGUGAAAGAGAGAAGUGAACCAGAGAAACACACGUUGUGGUAUGUUACAUGGUA, the self-cleavage is 0.246. Next, GUCCUCUUUCACGUGCGCGUGAAAGAGAGAAGUGAACCAGAGAAACACACGGAGUGGUAUAUUACCUGGUA: 0.857; GUCCUCUUUCACGUGCGCGUGAAAGAGAGAAGUGAACCAGCGAAACACAGGUUGUGGUAUAUUACCUGGUA: 0.667; GUCCUCUUUCACGGGCGCGUGAAAGAGAGAAGUGAACCAGAGAAACAGACGUUGUGGUAUAUUACCUGGUA: 0.178. With GUCCUCUUUCACGUGCGCGCGAAAGAGAGAAGUGUACCAGAGAAACACACGUUGUGGUAUAUUACCUGGUA, the self-cleavage stood at 0.82.

Consider GUCCUCUUUCACGUGCGGGUGAAAGAGAGAAGUGAACCAGAGAAACACACGUUGUGGUAUAUUACCUAGUA, for which the self-cleavage was 0.268. Consider GUCCUCCUUCACGUGCGCGUGAAAGAGAGAAGUGAACCAGAGAAACACACGUUGUGGUAUAUUACCUGCUA, for which the self-cleavage is 0.17. GUCCUCUUUCACGUGCGCGUGAAAGAGAGAAGUGAACCAGAGAAACACAGGUUGUGGUAUAUGACCUGGUA: the self-cleavage is 0.0983. On to GUCCUCUUUCACGUGCGCGUGAAAGAGAGAAGUGCACCAGAGAAACACACGUUGUGGUAUAUUACCUGAUA, for which the self-cleavage was found to be 0.378. GUCCUCUUUCACAUGCGCGUGAAAGAGAGAGGUGAACCAGAGAAACACACGUUGUGGUAUAUUACCUGGUA: the self-cleavage was determined as 0.515.

With GUCCUCUUUCACGUGCGCGUGAAGGAGAGAAGUGAACCAGAGAAACACGCGUUGUGGUAUAUUACCUGGUA, the self-cleavage was 0.352.

Consider GUCCUCUUUCACGUGCGCGUGAAAGAGAGAGGUGAACCAGAGUAACACACGUUGUGGUAUAUUACCUGGUA, for which the self-cleavage stood at 0.11. Next, GUCCUCUUUCACGUGCGCGUGAAAGAGAGAAGUGAACCAGAGAAACACACGUUGUUGUACAUUACCUGGUA: 0.135; GUCCUCUUUCACGUGCGCGUGAAAGAGAGAAGUGAACCAGAGGAACAUACGUUGUGGUAUAUUACCUGGUA: 0.123; GUCCUCUUUCACGUGCGCGUAAAAGAGAUAAGUGAACCAGAGAAACACACGUUGUGGUAUAUUACCUGGUA: 0.186.

As for GUCCUCUUUCACGUGCGCGUGAAAGAGAGAACUGAACCAGAGAAACACACGUUGUGGUCUAUUACCUGGUA, the self-cleavage was found to be 0.198.

As to GUCAUCUUUCACGUGCGCGUGAAAGAGAGAAGUGAACCAGAGAAACAGACGUUGUGGUAUAUUACCUGGUA, the self-cleavage stood at 0.207. With GUCCUCUUUCUCGUGGGCGUGAAAGAGAGAAGUGAACCAGAGAAACACACGUUGUGGUAUAUUACCUGGUA, the self-cleavage is 0.653. Next, GUCCUCUUACACGUGCGCGUGAAAGAGAGAAGUGAACCAGAGAAACACACGUUGUGGUAUAUUACCUGGCA: 0.719; GUCCUCUUUCACGUGCGCGUGAAAGAGGGAAGUGAACCAGAGAAACACACGUUGUAGUAUAUUACCUGGUA: 0.296; GUCCUCUUUCACGUGCGCGUGAAAGAGAGACGUGAACCAGAGAAACACACGUUGUGGUAUAUGACCUGGUA: 0.119.

As for GUCCUCUUUCACGUGCGCGUGAAAGAGAGCAGUGAACCAGCGAAACACACGUUGUGGUAUAUUACCUGGUA, the self-cleavage was determined as 0.315. As to GUCCUCUUUCACGUGCGCGUGUAAGAGAGAAGUGAACCAUAGAAACACACGUUGUGGUAUAUUACCUGGUA, the self-cleavage amounted to 0.115. Take GUCCUCUUUCACGUGCGCGUGAAAGAGAGAAGUGAACCAGAGAAACACACGUUGUGGUACAUCACCUGGUA: the self-cleavage stood at 0.314. With GUCCUCUUUCACGUGCGCGUGAAAGUGAGAAGUGAACCAGAGAAACACACGUUGUGGUAUAUUACCUGGUC, the self-cleavage was found to be 1.19. Take GUCCUCUUUCACGUGCGCGUGAAAGAGAGAAGUGAACCAGAGAAACACACGUUGUGUUAUAUUACCUGGAA: the self-cleavage was 0.266.

Turning to GUCCUCUUUCACGUGCGCGUGAAAGAGAGAAGUGAACCAGAGAAACACACGUUGUGGUAUAUUCCCUGGCA, the self-cleavage is 0.0963. As for GUCCUCUUUCAGGUGCGCGUGAAAGAGAGAAGUGAUCCAGAGAAACACACGUUGUGGUAUAUUACCUGGUA, the self-cleavage came out at 0.517. In the case of GUCCUCUUUCACGUGCGCGUGAAAGAGAGAAAUGAACCAGAGAAACACACGUUGUGGUAUAUUACCUGGUU, the self-cleavage came to 0.155. GUCCUAUUUCACCUGCGCGUGAAAGAGAGAAGUGAACCAGAGAAACACACGUUGUGGUAUAUUACCUGGUA: the self-cleavage came out at 0.341. In the case of GUCCUCUUUCAAGUUCGCGUGAAAGAGAGAAGUGAACCAGAGAAACACACGUUGUGGUAUAUUACCUGGUA, the self-cleavage stood at 0.805. Next, GUCCUCUUUCACGUGCGCGUGAGAGCGAGAAGUGAACCAGAGAAACACACGUUGUGGUAUAUUACCUGGUA: 0.524; GUCCUCUUUCAUGCGCGCGUGAAAGAGAGAAGUGAACCAGAGAAACACACGUUGUGGUAUAUUACCUGGUA: 1.05. Next, GUCCUCUUUCACGUGUGCGUGAAAGAGAGACGUGAACCAGAGAAACACACGUUGUGGUAUAUUACCUGGUA: 0.165; GUCCUCUUUCACGCGCGCGUGAAAGAGAGAAGUGAACCAGAGAAACACACGUUGUGGUAUUUUACCUGGUA: 0.293. Next, GUCCUCUUUCACGUGCGCGUGAAAGAGGGAAGUGAACCAGAGAAACGCACGUUGUGGUAUAUUACCUGGUA: 0.198.

On to GUCCUCUUACACGUGCGCCUGAAAGAGAGAAGUGAACCAGAGAAACACACGUUGUGGUAUAUUACCUGGUA, for which the self-cleavage came out at 0.588.
